Earlier results on three substances are cited in PMC10217895.

Where two headings read alike, the source gives them in different places.

For orientation: Kd means the free concentration of one partner at which half of the binding sites on the other are occupied at equilibrium, for simple one-to-one binding.

Some targets named below: SIGLEC5 (Homo sapiens) (UniProt O15389); ASGPR (Homo sapiens) (UniProt P07306); LDLR (Homo sapiens) (UniProt P01130); LRP1 (Homo sapiens) (UniProt Q07954); SCARA5 (Homo sapiens) (UniProt Q6ZMJ2).
In data set [1] the target is von Willebrand factor (Homo sapiens) (UniProt P04275).
Data set [2] has the same target. The source holds these as a separate data set.

Factor VIII, sequence (P00451 760-1332): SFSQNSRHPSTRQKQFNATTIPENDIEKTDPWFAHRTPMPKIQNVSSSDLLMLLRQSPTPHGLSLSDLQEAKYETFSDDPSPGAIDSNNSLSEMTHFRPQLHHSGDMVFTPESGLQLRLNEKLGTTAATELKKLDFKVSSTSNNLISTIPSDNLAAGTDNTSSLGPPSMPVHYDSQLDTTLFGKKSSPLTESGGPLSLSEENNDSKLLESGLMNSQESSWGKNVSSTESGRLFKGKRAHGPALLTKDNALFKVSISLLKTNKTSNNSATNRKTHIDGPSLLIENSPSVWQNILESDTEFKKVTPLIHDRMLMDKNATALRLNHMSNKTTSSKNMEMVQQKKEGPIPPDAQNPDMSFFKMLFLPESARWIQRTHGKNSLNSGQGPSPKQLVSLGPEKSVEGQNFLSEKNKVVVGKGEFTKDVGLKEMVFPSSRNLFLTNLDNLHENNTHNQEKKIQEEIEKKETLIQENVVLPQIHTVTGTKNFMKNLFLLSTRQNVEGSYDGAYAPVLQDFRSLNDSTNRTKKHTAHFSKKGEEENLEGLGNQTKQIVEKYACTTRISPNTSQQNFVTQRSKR
SIGLEC5 (Homo sapiens), sequence (O15389 17-441): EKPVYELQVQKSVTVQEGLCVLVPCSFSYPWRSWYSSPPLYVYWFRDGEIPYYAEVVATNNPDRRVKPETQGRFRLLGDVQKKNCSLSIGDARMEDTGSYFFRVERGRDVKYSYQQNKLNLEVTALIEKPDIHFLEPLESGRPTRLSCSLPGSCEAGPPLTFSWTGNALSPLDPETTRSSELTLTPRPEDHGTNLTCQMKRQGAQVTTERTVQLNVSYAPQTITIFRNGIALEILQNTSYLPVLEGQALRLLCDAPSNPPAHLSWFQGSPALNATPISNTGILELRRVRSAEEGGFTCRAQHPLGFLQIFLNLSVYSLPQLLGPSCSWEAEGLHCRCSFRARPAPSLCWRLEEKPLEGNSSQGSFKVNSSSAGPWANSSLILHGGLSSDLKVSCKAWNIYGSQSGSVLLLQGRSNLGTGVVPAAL
SCARA5 (Homo sapiens), sequence (Q6ZMJ2 whole entry): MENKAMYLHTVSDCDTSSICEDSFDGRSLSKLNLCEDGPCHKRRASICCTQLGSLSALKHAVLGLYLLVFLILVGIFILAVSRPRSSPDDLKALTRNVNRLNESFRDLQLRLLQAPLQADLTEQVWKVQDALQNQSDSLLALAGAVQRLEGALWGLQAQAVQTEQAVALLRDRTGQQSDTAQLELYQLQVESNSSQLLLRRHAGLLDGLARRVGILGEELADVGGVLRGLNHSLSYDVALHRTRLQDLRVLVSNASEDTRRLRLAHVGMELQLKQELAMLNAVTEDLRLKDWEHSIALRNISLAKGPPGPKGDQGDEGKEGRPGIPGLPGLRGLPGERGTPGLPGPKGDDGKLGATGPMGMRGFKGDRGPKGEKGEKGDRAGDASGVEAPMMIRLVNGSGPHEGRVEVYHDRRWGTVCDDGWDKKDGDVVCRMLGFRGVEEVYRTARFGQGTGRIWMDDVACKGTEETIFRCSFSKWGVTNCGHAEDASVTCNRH
FVIII-KB013bv, sequence (P00451 20-759): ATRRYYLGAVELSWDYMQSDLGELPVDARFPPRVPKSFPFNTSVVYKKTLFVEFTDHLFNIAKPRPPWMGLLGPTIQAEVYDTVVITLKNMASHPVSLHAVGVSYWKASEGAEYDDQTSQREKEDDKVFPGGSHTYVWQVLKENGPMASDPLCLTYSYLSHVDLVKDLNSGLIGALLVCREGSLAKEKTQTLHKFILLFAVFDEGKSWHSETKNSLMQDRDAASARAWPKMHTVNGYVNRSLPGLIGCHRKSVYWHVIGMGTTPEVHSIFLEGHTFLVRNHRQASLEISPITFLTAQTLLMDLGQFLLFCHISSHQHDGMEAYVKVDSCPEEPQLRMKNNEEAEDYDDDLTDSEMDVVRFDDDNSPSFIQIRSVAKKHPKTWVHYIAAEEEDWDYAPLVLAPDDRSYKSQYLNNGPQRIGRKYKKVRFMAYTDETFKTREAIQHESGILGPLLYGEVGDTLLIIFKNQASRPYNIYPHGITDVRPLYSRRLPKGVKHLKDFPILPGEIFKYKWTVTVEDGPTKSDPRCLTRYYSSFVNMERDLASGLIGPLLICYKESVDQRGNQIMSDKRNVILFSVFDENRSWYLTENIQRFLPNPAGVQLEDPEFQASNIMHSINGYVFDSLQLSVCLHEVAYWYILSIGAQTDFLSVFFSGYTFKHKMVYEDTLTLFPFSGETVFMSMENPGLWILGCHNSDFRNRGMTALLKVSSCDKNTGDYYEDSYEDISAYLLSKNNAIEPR
FVIII-KB013bv, sequence (P00451 1668-2351): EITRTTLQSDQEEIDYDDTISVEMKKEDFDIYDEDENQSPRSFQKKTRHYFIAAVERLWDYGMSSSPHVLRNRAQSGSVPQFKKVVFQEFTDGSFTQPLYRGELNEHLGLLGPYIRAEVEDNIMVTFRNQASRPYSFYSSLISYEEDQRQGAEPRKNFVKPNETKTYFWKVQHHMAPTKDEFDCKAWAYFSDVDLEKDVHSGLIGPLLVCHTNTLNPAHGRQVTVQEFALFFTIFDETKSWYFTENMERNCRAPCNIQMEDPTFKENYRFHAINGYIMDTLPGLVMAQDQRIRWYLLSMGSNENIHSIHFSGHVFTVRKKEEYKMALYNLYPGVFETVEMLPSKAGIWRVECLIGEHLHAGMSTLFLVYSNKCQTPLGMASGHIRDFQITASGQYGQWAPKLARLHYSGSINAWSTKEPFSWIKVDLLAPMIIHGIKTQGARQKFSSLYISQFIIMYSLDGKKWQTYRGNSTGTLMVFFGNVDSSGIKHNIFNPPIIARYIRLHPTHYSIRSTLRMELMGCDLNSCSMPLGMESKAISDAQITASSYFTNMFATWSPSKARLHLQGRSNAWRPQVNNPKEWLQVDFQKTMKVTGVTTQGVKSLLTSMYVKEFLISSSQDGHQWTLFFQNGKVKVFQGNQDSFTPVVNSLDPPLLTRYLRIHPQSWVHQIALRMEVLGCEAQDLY
LDLR (Homo sapiens), sequence (P01130 22-788): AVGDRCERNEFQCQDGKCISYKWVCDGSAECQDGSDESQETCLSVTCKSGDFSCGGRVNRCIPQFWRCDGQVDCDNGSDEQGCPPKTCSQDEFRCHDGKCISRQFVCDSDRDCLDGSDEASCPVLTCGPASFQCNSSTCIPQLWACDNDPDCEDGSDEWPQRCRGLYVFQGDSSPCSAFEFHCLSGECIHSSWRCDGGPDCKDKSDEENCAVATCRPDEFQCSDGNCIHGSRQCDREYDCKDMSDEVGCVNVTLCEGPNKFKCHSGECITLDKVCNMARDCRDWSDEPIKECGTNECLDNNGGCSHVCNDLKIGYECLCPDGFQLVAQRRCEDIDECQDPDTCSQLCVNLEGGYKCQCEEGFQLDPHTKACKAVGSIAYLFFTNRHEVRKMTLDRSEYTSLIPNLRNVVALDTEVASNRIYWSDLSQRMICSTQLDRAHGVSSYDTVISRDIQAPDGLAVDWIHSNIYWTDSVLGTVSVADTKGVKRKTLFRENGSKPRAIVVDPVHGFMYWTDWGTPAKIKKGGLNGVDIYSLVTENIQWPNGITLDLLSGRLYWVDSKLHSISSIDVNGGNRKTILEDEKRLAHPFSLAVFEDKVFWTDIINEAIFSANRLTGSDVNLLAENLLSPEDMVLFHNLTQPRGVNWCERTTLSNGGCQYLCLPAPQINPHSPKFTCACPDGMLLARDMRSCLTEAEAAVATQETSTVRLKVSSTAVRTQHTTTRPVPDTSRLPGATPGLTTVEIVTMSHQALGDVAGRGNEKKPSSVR
ASGPR (Homo sapiens), sequence (P07306 whole entry, chain 1 of 2): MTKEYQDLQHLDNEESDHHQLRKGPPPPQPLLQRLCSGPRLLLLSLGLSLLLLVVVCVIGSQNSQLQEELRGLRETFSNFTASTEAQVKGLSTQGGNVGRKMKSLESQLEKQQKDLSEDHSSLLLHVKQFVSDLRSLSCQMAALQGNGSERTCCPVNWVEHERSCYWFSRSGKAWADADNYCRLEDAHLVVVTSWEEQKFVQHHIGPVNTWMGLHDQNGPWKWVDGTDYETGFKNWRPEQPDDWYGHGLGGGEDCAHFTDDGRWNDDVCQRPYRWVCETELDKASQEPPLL
ASGPR (Homo sapiens), sequence (P07307 whole entry, chain 2 of 2, further chain): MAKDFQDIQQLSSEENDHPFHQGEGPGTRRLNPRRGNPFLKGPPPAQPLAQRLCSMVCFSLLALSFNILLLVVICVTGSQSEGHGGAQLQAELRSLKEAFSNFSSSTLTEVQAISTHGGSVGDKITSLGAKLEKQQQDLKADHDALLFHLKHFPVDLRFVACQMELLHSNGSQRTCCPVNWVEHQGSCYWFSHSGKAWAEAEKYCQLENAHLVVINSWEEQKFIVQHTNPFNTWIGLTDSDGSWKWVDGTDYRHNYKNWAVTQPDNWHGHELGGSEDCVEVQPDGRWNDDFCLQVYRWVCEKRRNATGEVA

In the case of Factor VIII (from UniProt P00451), the dissociation constant (Kd) is 8 nM with SIGLEC5 (Homo sapiens); 2 nM in the data set with ASGPR (Homo sapiens); 45 nM with LDLR (Homo sapiens); 20 nM in the data set with LRP1 (Homo sapiens); 0.5 nM in data set [1].

On to “von Willebrand factor (from UniProt P04275)”, for which, in the data set with SCARA5 (Homo sapiens), the Kd is 0.5 nM.

Consider FVIII-KB013bv (from UniProt P00451), for which the Kd in data set [2] was 0.013 nM.
